Experimental data from patent US20240207401A1 (IMPERIAL COLLEGE INNOVATIONS, published 2024).
Read-outs that look alike come from different tables or passages of the source.

B1: IC001 (antibody, V domains shown)
VH: QVQLVQSGAEVKKPGASVKVSCKASGYTFTSYAMHWVRQAPGQRLEWMGWINAGNGNTKYSQKFQGRVTITRDTSASTAYMELSSLRSEDTAVYYCARDRHMVVPAAVFDYWGQGTLVTVSS
VL: AIQLTQSPSTLSASVGDRVTITCRASQSISSWLAWYQQKPGKAPKLLIYKASSLESGVPSRFSGSGSGTEFTLTISSLQPDDFATYYCQQYGTFGQGTKWISN
notes: also called CoV-bnMAB; mAb IC001
B2: IC008 (antibody, V domains shown)
VH: LVQLQESGPRLVTPSETLSLTCTVSGGSISSSRHYWGWIRQPPGMGLEWIGSIDYSGGTYCNPSLKSRVTISEDTSKNQFSLKVNSVTAADTAVYYCARQVGHSGRGHNWFDPWGQGTLVTVSS
VL: DIQMTQSPSSLSASVGDRVTITCRASQSIYNYLNWYQQKPGKAPKFLIYAASTLQTGVPSRFSGSGSGTDFTLTISSLQPEDFATYYCQQSYSSSVTFGQGTRLEIK
notes: also called CoV-bnMAB; mAb IC008

How the values were obtained:
[1] = target: T1, SARS-CoV-2 spike trimer (COVID19 S ectodomain, residues 1-1208) (SARS-CoV-2, UniProt P0DTC2 14-1208)
[2] = target: T2, SARS-CoV spike protein, full length on virus (SARS-CoV, UniProt P59594 14-1255); assay: cell-based or functional assay
[3] = target: T3, MERS-CoV spike protein, full length on virus or transfected cells (MERS-CoV, UniProt K9N5Q8 18-1353); assay: cell-based or functional assay
[4] = target: SARS-CoV-2 S protein, membrane form (SARS-CoV-2, UniProt P0DTC2 14-1273); assay: cell-based or functional assay
[5] = target: T4, SARS-CoV spike trimer (S ectodomain protein) (SARS-CoV, UniProt P59594 14-1195); assay: SARS-CoV spike
T4 construct: also called SARS-CoV S ectodomain; SARS-CoV spike protein

[6] = target: T5, MERS-CoV spike trimer (S ectodomain protein) (MERS-CoV, UniProt K9N5Q8 18-1296); assay: MERS-CoV spike
T5 construct: also called MERS-CoV S ectodomain; MERS-CoV spike protein

[7] = target: T1, SARS-CoV-2 spike trimer (COVID19 S …); remark: listed apart in the source
[8] = target: T4, SARS-CoV spike trimer (S ectodomain …)
[9] = target: T5, MERS-CoV spike trimer (S ectodomain …)
[10] = target: T1, SARS-CoV-2 spike trimer (COVID19 S …); remark: listed apart in the source
[11] = target: T4, SARS-CoV spike trimer (S ectodomain …); remark: listed apart in the source
[12] = target: T2, SARS-CoV spike protein, full length on …; assay: cell-based or functional assay; remark: listed apart in the source
[13] = target: T3, MERS-CoV spike protein, full length on …; assay: cell-based or functional assay; remark: listed apart in the source
[14] = target: T1, SARS-CoV-2 spike trimer (COVID19 S …); assay: ELISA on spike trimer, IgG titrated

Row | Binder | EC50 [1] [nM] | fold weaker binding affinity than ACE2 [1] [fold] | IC50, neutralisation [2] [µg/mL] | IC50, neutralisation [3] [µg/mL] | IC50, neutralisation [4] [µg/mL] | EC50 [5] [nM] | EC50 [6] [nM] | EC50 [7] [nM] | EC50 [8] [nM] | Kd [9] [nM] | Kd [10] [nM] | Kd [11] [nM] | neutralization of SARS-CoV pseudovirus (IC50) [12] [µg/mL] | neutralization of MERS-CoV pseudovirus (IC50) [13] [µg/mL] | EC50 (read off the curve) [14] [nM]
1 | B1 | 586 | ~7 | 2.8 | 3 | 2.2 | 520 | 857 | 520 | 586 | 1200 | 700 | 700 | 1.8 | 2.9 | 
2 | B2 |  |  | 3 | 2.9 | 4.5 |  |  |  |  |  |  |  |  |  | ~2
